One may read the Kd as the constant that tells how readily two partners part at equilibrium. High values mean a looser complex, low ones a tighter complex.

The values that follow come from article PMC9813255 (2023).

Test [1] concerns the target T1, GST-Atxn1-86Q (UniProt P54253 1-815).
T1 chain: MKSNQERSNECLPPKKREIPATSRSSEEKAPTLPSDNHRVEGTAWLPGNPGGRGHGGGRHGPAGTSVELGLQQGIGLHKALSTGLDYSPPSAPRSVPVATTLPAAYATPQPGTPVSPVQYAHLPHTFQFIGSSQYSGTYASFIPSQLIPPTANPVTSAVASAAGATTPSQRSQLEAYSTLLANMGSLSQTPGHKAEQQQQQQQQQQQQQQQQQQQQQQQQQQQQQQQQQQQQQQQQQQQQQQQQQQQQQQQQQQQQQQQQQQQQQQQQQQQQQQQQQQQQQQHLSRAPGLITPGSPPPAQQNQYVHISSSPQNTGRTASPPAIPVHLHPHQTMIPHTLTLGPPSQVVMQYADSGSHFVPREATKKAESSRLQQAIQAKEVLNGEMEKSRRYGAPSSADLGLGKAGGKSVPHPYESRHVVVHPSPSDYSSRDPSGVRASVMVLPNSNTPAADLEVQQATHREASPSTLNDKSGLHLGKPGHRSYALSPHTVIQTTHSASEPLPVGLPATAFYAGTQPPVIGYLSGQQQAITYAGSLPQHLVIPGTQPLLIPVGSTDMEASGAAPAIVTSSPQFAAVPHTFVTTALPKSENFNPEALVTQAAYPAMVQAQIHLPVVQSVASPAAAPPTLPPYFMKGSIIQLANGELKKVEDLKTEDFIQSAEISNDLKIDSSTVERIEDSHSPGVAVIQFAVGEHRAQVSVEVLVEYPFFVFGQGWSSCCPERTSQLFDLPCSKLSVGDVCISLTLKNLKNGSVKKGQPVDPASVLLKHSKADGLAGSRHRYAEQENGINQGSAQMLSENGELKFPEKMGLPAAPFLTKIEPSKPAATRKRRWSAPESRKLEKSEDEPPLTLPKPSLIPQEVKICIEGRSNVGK
Briefly: SPR.

In test [2] the target is T2, GST-Atxn1-33Q (UniProt P54253 1-815).
T2 chain: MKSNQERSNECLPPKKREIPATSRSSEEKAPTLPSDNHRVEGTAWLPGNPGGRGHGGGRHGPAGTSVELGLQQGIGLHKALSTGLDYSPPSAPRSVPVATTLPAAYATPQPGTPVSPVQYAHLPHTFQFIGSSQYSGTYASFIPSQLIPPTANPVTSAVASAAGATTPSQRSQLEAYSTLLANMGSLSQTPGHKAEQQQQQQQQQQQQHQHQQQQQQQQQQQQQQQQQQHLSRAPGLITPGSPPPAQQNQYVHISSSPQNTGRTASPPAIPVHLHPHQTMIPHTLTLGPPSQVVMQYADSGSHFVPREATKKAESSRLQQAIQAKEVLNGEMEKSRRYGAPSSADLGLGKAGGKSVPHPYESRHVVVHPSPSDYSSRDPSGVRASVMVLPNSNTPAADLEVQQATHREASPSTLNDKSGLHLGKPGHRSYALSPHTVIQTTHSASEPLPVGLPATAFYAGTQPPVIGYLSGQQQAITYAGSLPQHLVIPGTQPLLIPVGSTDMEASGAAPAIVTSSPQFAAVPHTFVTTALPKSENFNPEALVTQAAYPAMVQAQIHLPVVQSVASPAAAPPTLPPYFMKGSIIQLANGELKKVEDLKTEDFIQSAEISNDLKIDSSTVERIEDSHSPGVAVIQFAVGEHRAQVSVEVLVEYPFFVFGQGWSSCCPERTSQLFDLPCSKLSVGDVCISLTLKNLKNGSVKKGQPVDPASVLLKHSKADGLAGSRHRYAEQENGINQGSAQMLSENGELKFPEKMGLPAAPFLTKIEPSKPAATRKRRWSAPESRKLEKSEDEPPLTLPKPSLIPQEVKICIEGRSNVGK
Briefly: SPR. For orientation: SPR reads the build-up and loss of mass on a sensor chip optically.

Test [3] has as its target human nucleolin (His-tag fusion protein) (human, UniProt P19338 1-710). Kind of test: SPR; PQBP5 analyte, nucleolin immobilized.
The target of test [4] is T3, human fibrillarin (His-tag fusion protein) (human, UniProt P22087 1-321).
T3 chain: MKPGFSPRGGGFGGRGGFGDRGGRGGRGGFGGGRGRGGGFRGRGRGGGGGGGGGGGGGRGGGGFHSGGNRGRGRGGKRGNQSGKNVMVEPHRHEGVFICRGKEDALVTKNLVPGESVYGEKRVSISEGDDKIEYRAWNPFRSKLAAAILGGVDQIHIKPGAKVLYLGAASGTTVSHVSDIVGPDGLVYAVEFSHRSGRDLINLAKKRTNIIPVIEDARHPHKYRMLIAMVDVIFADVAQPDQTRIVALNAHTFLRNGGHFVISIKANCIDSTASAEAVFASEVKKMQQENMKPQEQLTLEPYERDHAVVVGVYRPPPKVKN
Briefly: SPR; PQBP5 analyte, fibrillarin immobilized.

In test [5] the target is T4, GST-Htt-110Q.
T4 chain: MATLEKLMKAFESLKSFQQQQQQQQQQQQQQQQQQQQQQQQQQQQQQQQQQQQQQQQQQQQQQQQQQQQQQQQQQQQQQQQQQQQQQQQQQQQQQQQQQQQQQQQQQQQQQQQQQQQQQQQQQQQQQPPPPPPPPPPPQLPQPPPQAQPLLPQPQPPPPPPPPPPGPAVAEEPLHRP
Kind of test: SPR.

Sequence of human nucleolin (His-tag fusion protein) (P19338 whole entry, the tested form may be a part): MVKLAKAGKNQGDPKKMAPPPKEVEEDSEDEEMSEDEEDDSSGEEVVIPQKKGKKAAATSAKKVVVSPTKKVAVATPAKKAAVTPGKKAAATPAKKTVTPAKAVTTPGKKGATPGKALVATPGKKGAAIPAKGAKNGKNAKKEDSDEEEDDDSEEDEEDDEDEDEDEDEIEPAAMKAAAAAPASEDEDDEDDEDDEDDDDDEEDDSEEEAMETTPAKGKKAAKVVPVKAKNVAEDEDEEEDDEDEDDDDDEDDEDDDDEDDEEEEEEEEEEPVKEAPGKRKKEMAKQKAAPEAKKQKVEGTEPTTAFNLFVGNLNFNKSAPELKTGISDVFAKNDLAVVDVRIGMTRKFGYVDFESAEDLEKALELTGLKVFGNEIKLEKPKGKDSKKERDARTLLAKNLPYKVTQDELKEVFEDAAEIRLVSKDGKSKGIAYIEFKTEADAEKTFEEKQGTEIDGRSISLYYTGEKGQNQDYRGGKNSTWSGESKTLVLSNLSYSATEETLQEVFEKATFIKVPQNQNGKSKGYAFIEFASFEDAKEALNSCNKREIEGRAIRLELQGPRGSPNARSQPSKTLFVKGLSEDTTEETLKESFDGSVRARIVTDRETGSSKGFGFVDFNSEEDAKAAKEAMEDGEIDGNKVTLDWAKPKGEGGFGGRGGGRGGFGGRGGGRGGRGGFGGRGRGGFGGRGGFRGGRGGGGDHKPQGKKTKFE

B1: full-length human PQBP5 (His-tag fusion protein) (natural protein)
chain: MQVSSLNEVKIYSLSCGKSLPEWLSDRKKRALQKKDVDVRRRIELIQDFEMPTVCTTIKVSKDGQYILATGTYKPRVRCYDTYQLSLKFERCLDSEVVTFEILSDDYSKIVFLHNDRYIEFHSQSGFYYKTRIPKFGRDFSYHYPSCDLYFVGASSEVYRLNLEQGRYLNPLQTDAAENNVCDINSVHGLFATGTIEGRVECWDPRTRNRVGLLDCALNSVTADSEINSLPTISALKFNGALTMAVGTTTGQVLLYDLRSDKPLLVKDHQYGLPIKSVHFQDSLDLILSADSRIVKMWNKNSGKIFTSLEPEHDLNDVCLYPNSGMLLTANETPKMGIYYIPVLGPAPRWCSFLDNLTEELEENPESTVYDDYKFVTKKDLENLGLTHLIGSPFLRAYMHGFFMDIRLYHKVKLMVNPFAYEEYRKDKIRQKIEETRAQRVQLKKLPKVNKELALKLIEEEEEKQKSTWKKKVKSLPNILTDDRFKVMFENPDFQVDEESEEFRLLNPLVSKISEKRKKKLRLLEQQELREKEEEEEPEGKPSDAESSESSDDEKAWVEEVRKQRRLLQQEEKVKRQERLKEDQQTVLKPQFYEIKAGEEFRSFKDSATKQKLMNKTLEDRLKIEAKNGTLSVSDTTVGSKQLTFTLKRSEQQKKQQEAEKLHRQERKRLRRSAGHLKSRHKRGRSFH
With B1, the Kd worked out at 0.179 nM in test [1], 0.342 nM in test [2], 0.447 nM in test [3] and 745 nM in test [4].

B2: full-length human PQBP5 (His-tag fusion protein) (natural protein)
chain: MQVSSLNEVKIYSLSCGKSLPEWLSDRKKRALQKKDVDVRRRIELIQDFEMPTVCTTIKVSKDGQYILATGTYKPRVRCYDTYQLSLKFERCLDSEVVTFEILSDDYSKIVFLHNDRYIEFHSQSGFYYKTRIPKFGRDFSYHYPSCDLYFVGASSEVYRLNLEQGRYLNPLQTDAAENNVCDINSVHGLFATGTIEGRVECWDPRTRNRVGLLDCALNSVTADSEINSLPTISALKFNGALTMAVGTTTGQVLLYDLRSDKPLLVKDHQYGLPIKSVHFQDSLDLILSADSRIVKMWNKNSGKIFTSLEPEHDLNDVCLYPNSGMLLTANETPKMGIYYIPVLGPAPRWCSFLDNLTEELEENPESTVYDDYKFVTKKDLENLGLTHLIGSPFLRAYMHGFFMDIRLYHKVKLMVNPFAYEEYRKDKIRQKIEETRAQRVQLKKLPKVNKELALKLIEEEEEKQKSTWKKKVKSLPNILTDDRFKVMFENPDFQVDEESEEFRLLNPLVSKISEKRKKKLRLLEQQELREKEEEEEPEGKPSDAESSESSDDEKAWVEEVRKQRRLLQQEEKVKRQERLKEDQQTVLKPQFYEIKAGEEFRSFKDSATKQKLMNKTLEDRLKIEAKNGTLSVSDTTVGSKQLTFTLKRSEQQKKQQEAEKLHRQERKRLRRSAGHLKSRHKRGRSFH
modifications: Exon 1 with the polyQ tract (18-38, 21Q) repeated to 110Q, as in the assayed protein name. The plasmid is called 103Q, so the repeat count is ambiguous. GST omitted.
As for B2, the Kd in test [5] was found to be 0.00362 nM. That is a picomolar value.

B3: PQBP5-Δ5 (protein)
chain: MQVSSLNEVKIYSLSCGKSLPEWLSDRKKRALQKKDVDVRRRIELIQDFEMPTVCTTIKVSKDGQYILATGTYKPRVRCYDTYQLSLKFERCLDSEVVTFEILSDDYSKIVFLHNDRYIEFHSQSGFYYKTRIPKFGRDFSYHYPSCDLYFVGASSEVYRLNLEQGRYLNPLQTDAAENNVCDINSVHGLFATGTIEGRVECWDPRTRNRVGLLDCALNSVTADSEINSLPTISALKFNGALTMAVGTTTGQVLLYDLRSDKPLLVKDHQYGLPIKSVHFQDSLDLILSADSRIVKMWNKNSGKIFTSLEPEHDLNDVCLYPNSGMLLTANETPKMGIYYIPVLGPAPRWCSFLDNLTEELEENPESTVYDDYKFVTKKDLENLGLTHLIGSPFLRAYMHGFFMDIRLYHKVKLMVNPFAYEEYRKDKIRQKIEETRAQRVQLKKLPKVNKELALKLIEEEEEKQKSTWKKKVKSLPNILT
modifications: Delta number assigned from the order of the constructs in the methods (fifth: 1-481, lacking NUC153); tag omitted. Exon 1 with the polyQ tract (18-38, 21Q) repeated to 110Q, as in the assayed protein name. The plasmid is called 103Q, so the repeat count is ambiguous. GST omitted.
The molecule B3 displayed an equilibrium dissociation constant (Kd) in test [5] of 0.424 nM.

B4: PQBP5-Δ1 (protein)
chain: TYQLSLKFERCLDSEVVTFEILSDDYSKIVFLHNDRYIEFHSQSGFYYKTRIPKFGRDFSYHYPSCDLYFVGASSEVYRLNLEQGRYLNPLQTDAAENNVCDINSVHGLFATGTIEGRVECWDPRTRNRVGLLDCALNSVTADSEINSLPTISALKFNGALTMAVGTTTGQVLLYDLRSDKPLLVKDHQYGLPIKSVHFQDSLDLILSADSRIVKMWNKNSGKIFTSLEPEHDLNDVCLYPNSGMLLTANETPKMGIYYIPVLGPAPRWCSFLDNLTEELEENPESTVYDDYKFVTKKDLENLGLTHLIGSPFLRAYMHGFFMDIRLYHKVKLMVNPFAYEEYRKDKIRQKIEETRAQRVQLKKLPKVNKELALKLIEEEEEKQKSTWKKKVKSLPNILTDDRFKVMFENPDFQVDEESEEFRLLNPLVSKISEKRKKKLRLLEQQELREKEEEEEPEGKPSDAESSESSDDEKAWVEEVRKQRRLLQQEEKVKRQERLKEDQQTVLKPQFYEIKAGEEFRSFKDSATKQKLMNKTLEDRLKIEAKNGTLSVSDTTVGSKQLTFTLKRSEQQKKQQEAEKLHRQERKRLRRSAGHLKSRHKRGRSFH
modifications: Delta number assigned from the order of the constructs in the methods; initiator Met from the primer and tag omitted.
In the case of B4, the dissociation constant (Kd) is 0.294 nM in test [1] and 0.355 nM in test [2].

B5: PQBP5-Δ1 (protein)
chain: TYQLSLKFERCLDSEVVTFEILSDDYSKIVFLHNDRYIEFHSQSGFYYKTRIPKFGRDFSYHYPSCDLYFVGASSEVYRLNLEQGRYLNPLQTDAAENNVCDINSVHGLFATGTIEGRVECWDPRTRNRVGLLDCALNSVTADSEINSLPTISALKFNGALTMAVGTTTGQVLLYDLRSDKPLLVKDHQYGLPIKSVHFQDSLDLILSADSRIVKMWNKNSGKIFTSLEPEHDLNDVCLYPNSGMLLTANETPKMGIYYIPVLGPAPRWCSFLDNLTEELEENPESTVYDDYKFVTKKDLENLGLTHLIGSPFLRAYMHGFFMDIRLYHKVKLMVNPFAYEEYRKDKIRQKIEETRAQRVQLKKLPKVNKELALKLIEEEEEKQKSTWKKKVKSLPNILTDDRFKVMFENPDFQVDEESEEFRLLNPLVSKISEKRKKKLRLLEQQELREKEEEEEPEGKPSDAESSESSDDEKAWVEEVRKQRRLLQQEEKVKRQERLKEDQQTVLKPQFYEIKAGEEFRSFKDSATKQKLMNKTLEDRLKIEAKNGTLSVSDTTVGSKQLTFTLKRSEQQKKQQEAEKLHRQERKRLRRSAGHLKSRHKRGRSFH
modifications: Delta number assigned from the order of the constructs in the methods; initiator Met from the primer and tag omitted. Exon 1 with the polyQ tract (18-38, 21Q) repeated to 110Q, as in the assayed protein name. The plasmid is called 103Q, so the repeat count is ambiguous. GST omitted.
With B5, the equilibrium dissociation constant (Kd) in test [5] was 2.11 nM. This lies in the single-digit nanomolar range.
